According to patent publication US11306156:
Blank lines part the entries; values can stand above or below the substance they belong to.

How the values were obtained:
[1] = molecular target: Cetuximab light chain Q38R_Q124R_Q160K_T178R; assay: SMCA: H1, H2, L1, L2 co-expressed in CHO-3E7, protein A purified, LC-MS; competing light chain m18
[2] = molecular target: Cetuximab light chain Q38R_Q124R_Q160K_T178R; assay: SMCA: H1, H2, L1, L2 co-expressed in CHO-3E7, protein A purified, LC-MS; competing light chain m18; against wild-type bispecific
[3] = molecular target: Cetuximab light chain Q38R_Q124R_Q160K_T178R; assay: SMCA: H1, H2, L1, L2 co-expressed in CHO-3E7, protein A purified, LC-MS; competing light chain m10; *** estimated change against a similar wild-type construct
[4] = molecular target: tissue factor (TF) antigen (UniProt P13726); assay: SPR (ProteOn), Fab captured via anti-penta-His, TF injected, 1:1 fit
[5] = molecular target: tissue factor (TF) antigen (UniProt P13726); assay: SPR (ProteOn), Fab captured via anti-penta-His, TF injected, 1:1 fit; reference wild-type D3H44 Fab
[6] = molecular target: tissue factor (TF) antigen (UniProt P13726); assay: SPR (ProteOn), Fab captured via anti-penta-His, TF injected, 1:1 fit; estimated (*) from a Fab differing only in L chain tag
[7] = molecular target: tissue factor (TF) antigen (UniProt P13726); assay: SPR (ProteOn), Fab captured via anti-penta-His, TF injected, 1:1 fit; reference wild-type D3H44 Fab; estimated (*) from a Fab differing only in L chain tag
[8] = molecular target: tissue factor (TF) antigen (UniProt P13726); assay: SPR as for KD; reference: wild-type D3H44 Fab; batch C (+)
[9] = molecular target: tissue factor (TF) antigen (UniProt P13726); assay: SPR as for KD; reference: wild-type D3H44 Fab; batch C (+); Set # read as 9787
[10] = molecular target: tissue factor (TF) antigen (UniProt P13726); assay: SPR, ProteOn XPR36; His-tagged Fab captured on anti-penta-His, TF injected; 1:1 fit; batch C (+)
[11] = molecular target: tissue factor (TF) antigen (UniProt P13726); assay: SPR, ProteOn XPR36; His-tagged Fab captured on anti-penta-His, TF injected; 1:1 fit; batch C (+); Set # read as 9787
[12] = molecular target: Trastuzumab light chain Q38R_Q124R_Q160K_T178R; assay: SMCA: H1, H2, L1, L2 co-expressed in CHO-3E7, protein A purified, LC-MS; competing light chain m16
[13] = molecular target: Trastuzumab light chain Q38E_Q124E_Q160E_T180E; assay: SMCA: H1, H2, L1, L2 co-expressed in CHO-3E7, protein A purified, LC-MS; competing light chain m12
[14] = molecular target: Trastuzumab light chain Q38E_Q124E_Q160E_T180E; assay: SMCA: H1, H2, L1, L2 co-expressed in CHO-3E7, protein A purified, LC-MS; competing light chain m14
[15] = molecular target: Trastuzumab light chain Q38E_Q124E_Q160E_T180E; assay: SMCA: H1, H2, L1, L2 co-expressed in CHO-3E7, protein A purified, LC-MS; competing light chain m12; against wild-type bispecific
[16] = molecular target: Trastuzumab light chain Q38E_Q124E_Q160E_T180E; assay: SMCA: H1, H2, L1, L2 co-expressed in CHO-3E7, protein A purified, LC-MS; competing light chain m14; against wild-type bispecific

Substance: D3H44 Fab heterodimer (H1L1) of LCCA Sets # 9683, 9684: H1 L143E_K145T_Q179E, L1 T178R
Kd [4]: 0.3 nM
change in median KD compared to wild type, -(log(KD design)-log(KD wt)) [5]: -0.28
Kd [6]: 0.3 nM
change in median KD compared to wild type, -(log(KD design)-log(KD wt)) [7]: -0.28

Substance: D3H44 Fab heterodimer, H1L1 of LCCA Sets # 9794, 9796, 9797, 9792, 9789 and 9787 (H1 Q179K; L1 Q124E_T180E)
change in median KD compared to wild type, -(log(KD design)-log(KD wt)) [8]: 0.16
change in median KD compared to wild type, -(log(KD design)-log(KD wt)) [9]: 0.16
Kd [10]: 0.11 nM
Kd [11]: 0.11 nM

Substance: Trastuzumab heavy chain Q39R_H172R_Q179K (from UniProt P0DOX5 2-448)
% H1L1 Pairing (over all H1 species) [13]: 100%
% H2L2 Pairing (over all H2 species) [14]: 100%
Change in % H1L1 Pairing (over all H1 species) with respect to wild type [15]: 6%
Change in % H2L2 Pairing (over all H2 species) with respect to wild type [16]: 7%

Other lines, results leading:

% H2L2 Pairing (over all H2 species) [1]: 52.3%
Change in % H2L2 Pairing (over all H2 species) with respect to wild type [2]: 22.7%
Change in % H2L2 Pairing (over all H2 species) with respect to wild type [3]: 1.6%
Substance: Cetuximab heavy chain Q39E_L143E_K145T_Q179E

% H1L1 Pairing (over all H1 species) [12]: 100%
Substance: Trastuzumab heavy chain Q39E_L143E_K145T_Q179E (from UniProt P0DOX5 2-448)
